# Where a SMILES comes first, the peptide text is derived from it. Where no end group is shown, it is not given here.
# B1: Ar5Y_4 mutant R9A (peptide)
# peptide: GNWDYNSQAAQLYNQ
# notes: numbers count on the peptide itself; source: synthetic peptide (Fmoc solid-phase synthesis)
# B2: Ar5Y_4 mutant W3A (peptide)
# peptide: GNADYNSQRAQLYNQ
# notes: as for B1
# B3: Ar5Y_4 mutant Y5A (peptide)
# peptide: GNWDANSQRAQLYNQ
# notes: as for B1
# B4: Ar5Y_4 mutant Y13A (peptide)
# peptide: GNWDYNSQRAQLANQ
# notes: as for B1
# B5: Ar5Y_4 mutant D4A (peptide)
# peptide: GNWAYNSQRAQLYNQ
# notes: as for B1
# B6: Ar5M_1 (peptide)
# peptide: LDYGDKREGQMAE
# notes: peptide designed with anchor residues R113, M115, A121, D122 and Y123 of hPD-L1; source: synthetic peptide (Fmoc solid-phase synthesis)
# B7: Ar4_1 (peptide)
# peptide: GIDYEERWK
# notes: peptide designed with anchor residues R113, A121, D122 and Y123 of hPD-L1; source: synthetic peptide (Fmoc solid-phase synthesis)
# B8: Ar5M_2 (peptide)
# peptide: LDYVNRRKMYQ
# notes: as for B6
# B9: Ar4_2 (peptide)
# peptide: LDYDGRLSQ
# notes: as for B7
# B10: Ar5Y_3 (peptide)
# peptide: TEKDYRHGNIRMKLAYDL
# notes: de novo designed peptide with anchor residues Y56, R113, A121, D122 and Y123 of hPD-L1; source: synthetic peptide (Fmoc solid-phase synthesis)
# B11: Ar5Y_2 (peptide)
# peptide: FNWDYSLEELREKAKYK
# notes: as for B10
# B12: Ar5Y_4 (peptide)
# peptide: GNWDYNSQRAQLYNQ
# notes: as for B10
# B13: Ar5Y_1 (peptide)
# peptide: FNWDYSWKSERLKEAYDL
# notes: as for B10
# Molecular target: T1, human programmed death 1 (hPD-1), extracellular region (amino acids 34-150) (human, UniProt Q15116 34-150)
# T1 construct: extracellular region of human PD-1, amino acids 34-150, cloned into pET28a between NcoI and NdeI sites; purification was by cation exchange and gel filtration; also called CD279
# T1 sequence (Q15116 34-150): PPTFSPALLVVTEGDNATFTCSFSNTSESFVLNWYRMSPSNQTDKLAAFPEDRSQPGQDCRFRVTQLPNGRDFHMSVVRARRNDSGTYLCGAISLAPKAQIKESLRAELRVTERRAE
# Assay: SPR; Biacore T200; hPD-1 immobilised on a CM5 chip by amine coupling (5000 RU); peptides or hPD-L1 injected 90 s, dissociation 120 s; PBS-P buffer pH 7.4, 25°C, 30 μl/min; steady-state model
# Conditions: both partners purified
row,Molecule,Kd
1,B1,21.2 µM
2,B2,8.08 µM
3,B3,20.2 µM
4,B4,10.2 µM
5,B5,18.9 µM

# Molecular target: T2, hPD-1 (Homo sapiens, UniProt Q15116)
# T2 construct: extracellular region of hPD-1 (amino acids 34–150); made in house; host or cells: E. coli BL21 (DE3)
# T2 sequence (Q15116 34-150): as above
# Assay: SPR direct binding assay, hPD-1 immobilized on CM5 sensor chip
# Conditions: steady-state model, PBS-P buffer pH 7.4, 25°C, mean ± SD from three independent experiments
# Procedure: The purified active hPD-1 was diluted in 10 mM sodium acetate buffer (pH 4.5) to the final concentration of 50 μg/ml. The diluted hPD-1 was immobilized on a CM5 sensor chip by amino coupling reagent kit, and the immobilization level was 5000 response unit (RU). Binding experiments were performed in PBS-P buffer (8 mM Na2HPO4, 2 mM KH2PO4, 137 mM NaCl, 2.7 mM KCl, 0.005% surfactant P20, pH 7.4) at 25°C with a flow rate of 30 μl/min. […] RU values were collected and all the experimental data was globally analyzed by a steady-state model within Biacore T200 Evaluation software, version 2.0.
row,Molecule,Kd
1,"N[C@@H](Cc1c[nH]c2ccccc12)C(=O)N[C@@H](CC(=O)O)C(=O)N[C@@H](Cc1ccc(O)cc1)C(=O)N[C@@H](CC(=O)O)C(=O)O [Ar3_1, WDYD] (H-WDYD-OH)",22.4 ± 0.34 µM
2,GNWDANSQRAQLYNQ [Peptide Y5A],20.1 ± 0.98 µM

# Molecular target: T1, human programmed death 1 (hPD-1), …
# Assay: SPR; Biacore T200; hPD-1 immobilised on a CM5 chip by amine coupling (5000 RU); peptides or hPD-L1 injected 90 s, dissociation 120 s; PBS-P buffer pH 7.4, 25°C, 30 μl/min; steady-state model
# Conditions: both partners purified
# Remark: another data set of the same source
row,Molecule,Kd
1,B6,21.6 µM
2,B7,28.3 µM
3,B8,3.32 µM
4,B9,83.9 µM

# Molecular target: T1, human programmed death 1 (hPD-1), …
# Assay: as above
# Conditions: both partners purified
# Remark: another data set of the same source
row,Molecule,Kd
1,B10,3.13 µM
2,B11,3.14 µM
3,B12,1.38 µM
4,B13,3.39 µM

# Reference: publication PMC5323130 (Oncotarget, 2016)
